Legend:
Assay in all cases: two-hybrid library CCNG1;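 note: natural log of median RNA to DNA barcode read ratio; higher means stronger binding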
4H3638-bH = target: T1, 4H3638-bH
T1 chain: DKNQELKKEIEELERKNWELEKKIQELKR

4H906-bH = target: T2, 4H906-bH
T2 chain: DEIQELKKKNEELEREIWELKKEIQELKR

4H3974-bH = target: T3, 4H3974-bH
T3 chain: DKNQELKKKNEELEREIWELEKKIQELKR

4H3129-bH = target: T4, 4H3129-bH
T4 chain: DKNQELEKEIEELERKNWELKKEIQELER

4H3817-bH = target: T5, 4H3817-bH
T5 chain: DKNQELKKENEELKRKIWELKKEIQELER

4H850-bH = target: T6, 4H850-bH
T6 chain: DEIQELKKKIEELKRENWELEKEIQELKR

4H3172-bH = target: T7, 4H3172-bH
T7 chain: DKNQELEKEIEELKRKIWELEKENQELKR

4H584-bH = target: T8, 4H584-bH
T8 chain: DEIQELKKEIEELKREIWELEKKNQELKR

4H3414-bH = target: T9, 4H3414-bH
T9 chain: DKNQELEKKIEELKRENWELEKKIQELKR

4H3631-bH = target: T10, 4H3631-bH
T10 chain: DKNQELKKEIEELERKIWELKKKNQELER

4H619-bH = target: T11, 4H619-bH
T11 chain: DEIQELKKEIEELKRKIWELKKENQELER

4H570-bH = target: T12, 4H570-bH
T12 chain: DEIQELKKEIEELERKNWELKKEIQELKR

4H741-bN = target: T13, 4H741-bN
T13 chain: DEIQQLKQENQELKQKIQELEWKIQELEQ

O2-bS = target: T14, O2-bS
T14 chain: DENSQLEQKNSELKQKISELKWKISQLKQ

4H470-bA = target: T15, 4H470-bA
T15 chain: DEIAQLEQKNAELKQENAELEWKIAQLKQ

4H3961-bA = target: T16, 4H3961-bA; conditions: mean of both orientations
T16 chain: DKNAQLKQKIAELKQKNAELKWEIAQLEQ

O4-bS = target: T17, O4-bS
T17 chain: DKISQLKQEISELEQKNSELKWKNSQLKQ

O8-bS = target: T18, O8-bS
T18 chain: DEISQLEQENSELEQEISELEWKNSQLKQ

O5-bS = target: T19, O5-bS
T19 chain: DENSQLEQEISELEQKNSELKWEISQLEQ

O9-bS = target: T20, O9-bS
T20 chain: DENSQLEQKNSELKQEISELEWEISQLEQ

O6-bS = target: T21, O6-bS
T21 chain: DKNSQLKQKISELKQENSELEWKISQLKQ

O7-bS = target: T22, O7-bS
T22 chain: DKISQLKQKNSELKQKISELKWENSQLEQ

4H319-bH = target: T23, 4H319-bH
T23 chain: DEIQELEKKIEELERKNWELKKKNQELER

4H2839-bH = target: T24, 4H2839-bH
T24 chain: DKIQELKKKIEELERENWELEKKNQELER

4H2717-bH = target: T25, 4H2717-bH
T25 chain: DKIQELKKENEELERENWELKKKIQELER

4H348-bH = target: T26, 4H348-bH
T26 chain: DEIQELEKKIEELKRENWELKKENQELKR

4H3057-bH = target: T27, 4H3057-bH
T27 chain: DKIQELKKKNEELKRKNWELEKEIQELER

4H2915-bH = target: T28, 4H2915-bH
T28 chain: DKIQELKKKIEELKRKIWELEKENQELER

4H3277-bH = target: T29, 4H3277-bH
T29 chain: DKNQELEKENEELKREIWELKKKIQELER

4H2692-bH = target: T30, 4H2692-bH
T30 chain: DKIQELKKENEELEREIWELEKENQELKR

4H741-bH = target: T31, 4H741-bH
T31 chain: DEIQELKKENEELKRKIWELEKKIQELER

4H40-bH = target: T32, 4H40-bH
T32 chain: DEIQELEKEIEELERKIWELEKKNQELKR

4H477-bH = target: T33, 4H477-bH
T33 chain: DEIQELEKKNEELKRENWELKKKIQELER

4H492-bH = target: T34, 4H492-bH
T34 chain: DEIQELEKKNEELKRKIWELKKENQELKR

P7A-bN = target: T35, P7A-bN
T35 chain: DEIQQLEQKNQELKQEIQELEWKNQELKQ

P8A-bN = target: T36, P8A-bN
T36 chain: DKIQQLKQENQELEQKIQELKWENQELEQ

P9A-bN = target: T37, P9A-bN
T37 chain: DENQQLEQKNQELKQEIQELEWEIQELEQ

4H568-bH = target: T38, 4H568-bH
T38 chain: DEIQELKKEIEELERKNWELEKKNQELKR

4H3843-bH = target: T39, 4H3843-bH
T39 chain: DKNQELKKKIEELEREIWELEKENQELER

4H331-bH = target: T40, 4H331-bH
T40 chain: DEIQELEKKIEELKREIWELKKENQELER

4H687-bH = target: T41, 4H687-bH
T41 chain: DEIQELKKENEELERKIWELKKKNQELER

4H3189-bH = target: T42, 4H3189-bH
T42 chain: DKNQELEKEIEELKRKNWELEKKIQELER

4H72-bH = target: T43, 4H72-bH
T43 chain: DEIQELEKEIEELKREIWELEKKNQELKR

4H918-bH = target: T44, 4H918-bH
T44 chain: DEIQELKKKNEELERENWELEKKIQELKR

4H3782-bH = target: T45, 4H3782-bH
T45 chain: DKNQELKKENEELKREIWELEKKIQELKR

4H607-bH = target: T46, 4H607-bH
T46 chain: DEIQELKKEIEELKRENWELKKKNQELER

4H797-bH = target: T47, 4H797-bH
T47 chain: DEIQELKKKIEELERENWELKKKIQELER

4H953-bH = target: T48, 4H953-bH
T48 chain: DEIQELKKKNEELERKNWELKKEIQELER

4H3606-bH = target: T49, 4H3606-bH
T49 chain: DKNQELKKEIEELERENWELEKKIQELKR

4H370-bH = target: T50, 4H370-bH
T50 chain: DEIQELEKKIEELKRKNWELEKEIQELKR

4H967-bH = target: T51, 4H967-bH
T51 chain: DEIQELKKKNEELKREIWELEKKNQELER

4H2697-bH = target: T52, 4H2697-bH
T52 chain: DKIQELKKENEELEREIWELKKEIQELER

4H462-bH = target: T53, 4H462-bH
T53 chain: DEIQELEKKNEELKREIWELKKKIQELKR

4H4001-bH = target: T54, 4H4001-bH
T54 chain: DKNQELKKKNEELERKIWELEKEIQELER

4H883-bH = target: T55, 4H883-bH
T55 chain: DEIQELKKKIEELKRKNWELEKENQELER

O3-bS = target: T56, O3-bS
T56 chain: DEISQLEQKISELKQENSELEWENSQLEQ

4H932-bA = target: T57, 4H932-bA
T57 chain: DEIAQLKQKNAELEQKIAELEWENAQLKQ

4H949-bA = target: T58, 4H949-bA
T58 chain: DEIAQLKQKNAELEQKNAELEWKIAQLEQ

4H796-bA = target: T59, 4H796-bA
T59 chain: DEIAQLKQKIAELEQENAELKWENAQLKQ

P9mSN = target: T60, P9mSN
T60 chain: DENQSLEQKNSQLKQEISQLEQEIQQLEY

B1: 4H3129-bH (peptide)
chain: DKNQELEKEIEELERKNWELKKEIQELER
interaction score (4H3638-bH): -1.18 | interaction score (4H906-bH): -0.384 | interaction score (4H3974-bH): -0.348 | interaction score (4H3129-bH): -2.16 | interaction score (4H3817-bH): -0.197 | interaction score (4H850-bH): 0.17 | interaction score (4H3172-bH): -0.227 | interaction score (4H584-bH): -0.445 | interaction score (4H3414-bH): 1.62 | interaction score (4H3631-bH): -0.645 | interaction score (4H619-bH): -0.44 | interaction score (4H570-bH): -1.61

B2: 4H741-bN (peptide)
chain: DEIQQLKQENQELKQKIQELEWKIQELEQ
interaction score (4H741-bN): 1.19 | interaction score (O2-bS): -3.38

B3: 4H470-bA (peptide)
chain: DEIAQLEQKNAELKQENAELEWKIAQLKQ
interaction score (4H470-bA): 0.201

B4: 4H3961-bA (peptide)
chain: DKNAQLKQKIAELKQKNAELKWEIAQLEQ
interaction score (4H3961-bA): -1.09 | interaction score (4H470-bA): -0.153

B5: O2-bS (peptide)
chain: DENSQLEQKNSELKQKISELKWKISQLKQ
interaction score (O4-bS): -1.49 | interaction score (O8-bS): -2.49 | interaction score (O5-bS): -2.56 | interaction score (O9-bS): -1.59 | interaction score (O6-bS): -1.1 | interaction score (O2-bS): -0.754 | interaction score (O7-bS): -0.412

B6: 4H3172-bH (peptide)
chain: DKNQELEKEIEELKRKIWELEKENQELKR
interaction score (4H3638-bH): -0.13 | interaction score (4H906-bH): -0.821 | interaction score (4H3974-bH): 0.353 | interaction score (4H3817-bH): -0.475 | interaction score (4H850-bH): -0.531 | interaction score (4H3172-bH): 0.448 | interaction score (4H584-bH): -1.68 | interaction score (4H3414-bH): 0.693 | interaction score (4H3631-bH): 0.994 | interaction score (4H619-bH): -1.22 | interaction score (4H570-bH): 0.871

B7: 4H2692-bH (peptide)
chain: DKIQELKKENEELEREIWELEKENQELKR
interaction score (4H319-bH): -1.1 | interaction score (4H2839-bH): -0.447 | interaction score (4H2717-bH): -0.125 | interaction score (4H348-bH): -0.787 | interaction score (4H3057-bH): -0.0522 | interaction score (4H2915-bH): 0.971 | interaction score (4H3277-bH): -0.368 | interaction score (4H2692-bH): 0.733 | interaction score (4H741-bH): -1.04 | interaction score (4H40-bH): 0.218 | interaction score (4H477-bH): -0.436 | interaction score (4H492-bH): 1.54

B8: P7A-bN (peptide)
chain: DEIQQLEQKNQELKQEIQELEWKNQELKQ
interaction score (P7A-bN): 0.344 | interaction score (P8A-bN): 2.12 | interaction score (P9A-bN): -1.19

B9: 4H2697-bH (peptide)
chain: DKIQELKKENEELEREIWELKKEIQELER
interaction score (4H568-bH): -1.4 | interaction score (4H3843-bH): -0.103 | interaction score (4H331-bH): 0.0266 | interaction score (4H687-bH): -0.768 | interaction score (4H3189-bH): -0.0723 | interaction score (4H72-bH): -1.97 | interaction score (4H918-bH): -0.619 | interaction score (4H3782-bH): 0.502 | interaction score (4H607-bH): -0.619 | interaction score (4H797-bH): -0.611 | interaction score (4H953-bH): -0.201 | interaction score (4H3606-bH): -1.34 | interaction score (4H370-bH): -0.895 | interaction score (4H967-bH): 0.26 | interaction score (4H2697-bH): 0.402 | interaction score (4H462-bH): -0.915 | interaction score (4H4001-bH): -0.578 | interaction score (4H883-bH): -0.628

B10: 4H796-bA (peptide)
chain: DEIAQLKQKIAELEQENAELKWENAQLKQ
interaction score (O3-bS): -0.947 | interaction score (4H932-bA): -0.164 | interaction score (4H949-bA): -0.898 | interaction score (4H796-bA): 0.961

B11: P6A-bN (peptide)
chain: DKNQQLKQEIQELEQENQELEWKIQELKQ
interaction score (P9mSN): -0.239 | interaction score (P7A-bN): 0.204 | interaction score (P8A-bN): -0.195 | interaction score (P9A-bN): 0.0031

— article PMC10397247
